# Experimental data published in paper PMC10368727, “Sequestration of histidine kinases by non-cognate response regulators establishes a threshold level of stimulation for bacterial two-component signaling” (Nature Communications, 2023).
# Like-named read-outs stand apart in the source and are kept apart here.
# B1: response regulator PrrA (natural protein)
# chain: MDTGVTSPRVLVVDDDSDVLASLERGLRLSGFEVATAVDGAEALRSATENRPDAIVLDINMPVLDGVSVVTALRAMDNDVPVCVLSARSSVDDRVAGLEAGADDYLVKPFVLAELVARVKALLRRRGSTATSSSETITVGPLEVDIPGRRARVNGVDVDLTKREFDLLAVLAEHKTAVLSRAQLLELVWGYDFAADTNVVDVFIGYLRRKLEAGGGPRLLHTVRGVGFVLRMQ
# B2: response regulator MtrA (natural protein)
# chain: MDTMRQRILVVDDDASLAEMLTIVLRGEGFDTAVIGDGTQALTAVRELRPDLVLLDLMLPGMNGIDVCRVLRADSGVPIVMLTAKTDTVDVVLGLESGADDYIMKPFKPKELVARVRARLRRNDDEPAEMLSIADVEIDVPAHKVTRNGEQISLTPLEFDLLVALARKPRQVFTRDVLLEQVWGYRHPADTRLVNVHVQRLRAKVEKDPENPTVVLTVRGVGYKAGPP
# notes: also called cognate RR MtrA
# B3: response regulator MprA (natural protein)
# chain: MSVRILVVDDDRAVRESLRRSLSFNGYSVELAHDGVEALDMIASDRPDALVLDVMMPRLDGLEVCRQLRGTGDDLPILVLTARDSVSERVAGLDAGADDYLPKPFALEELLARMRALLRRTKPEDAAESMAMRFSDLTLDPVTREVNRGQRRISLTRTEFALLEMLIANPRRVLTRSRILEEVWGFDFPTSGNALEVYVGYLRRKTEADGEPRLIHTVRGVGYVLRETPP
# B4: response regulator TcrX (natural protein)
# chain: MRRADGQPVTVLVVDDEPVLAEMVSMALRYEGWNITTAGDGSSAIAAARRQRPDVVVLDVMLPDMSGLDVLHKLRSENPGLPVLLLTAKDAVEDRIAGLTAGGDDYVTKPFSIEEVVLRLRALLRRTGVTTVDSGAQLVVGDLVLDEDSHEVMRAGEPVSLTSTEFELLRFMMHNSKRVLSKAQILDRVWSYDFGGRSNIVELYISYLRKKIDNGREPMIHTLRGAGYVLKPAR
# B5: GFP-tagged MtrB, unphosphorylated (cytosolic catalytic domain) (domain or fragment)
# chain: SRQVVVPVRSASRIAERFAEGHLSERMPVRGEDDMARLAVSFNDMAESLSRQIAQLEEFGNLQRRFTSDVSHELRTPLTTVRMAADLIYDHSADLDPTLRRSTELMVSELDRFETLLNDLLEISRHDAGVAELSVEAVDLRTTVNNALGNVGHLAEEAGIELLVDLPAEQVIAEVDARRVERILRNLIANAIDHAEHKPVRIRMAADEDTVAVTVRDYGVGLRPGEEKLVFSRFWRSDPSRVRRSGGTGLGLAISVEDARLHQGRLEAWGEPGEGACFRLTLPMVRGHKVTTSPLPMKPIPQPVLQPVAQPNPQPMPPEYKERQRPREHAEWSG
# notes: also called MtrB-GFP
# B6: phosphorylated, GFP-tagged HK MtrB (cytosolic catalytic domain) (domain or fragment)
# chain: B5 chain
# notes: also called MtrB~P; P~MtrB-GFP
# B7: response regulator TcrA (natural protein)
# chain: MADETTMRAGRGPGRACGRVSGVRILVVEDEPKMTALLARALTEEGHTVDTVADGRHAVAAVDGGDYDAVVLDVMLPGIDGFEVCARLRRQRVWTPVLMLTARGAVTDRIAGLDGGADDYLTKPFNLDELFARLRALSRRGPIPRPPTLEAGDLRLDPSEHRVWRADTEIRLSHKEFTLLEALIRRPGIVHTRAQLLERCWDAAYEARSNIVDVYIRYLRDKIDRPFGVTSLETIRGAGYRLRKDGGRHALPR
# B8: response regulator NarL (natural protein)
# chain: MSNPQPEKVRVVVGDDHPLFREGVVRALSLSGSVNVVGEADDGAAALELIKAHLPDVALLDYRMPGMDGAQVAAAVRSYELPTRVLLISAHDEPAIVYQALQQGAAGFLLKDSTRTEIVKAVLDCAKGRDVVAPSLVGGLAGEIRQRAAPVAPVLSAREREVLNRIACGQSIPAIAAELYVAPSTVKTHVQRLYEKLGVSDRAAAVAEAMRQRLLD
# notes: also called non-cognate RR NarL
# B9: phosphorylated, histidine tag labeled HK DevS (cytosolic catalytic domain) (domain or fragment)
# chain: LATSQRRMRELDVLTDRDRIARDLHDHVIQRLFAIGLALQGAVPHERNPEVQQRLSDVVDDLQDVIQEIRTTIYDLHGASQGITRLRQRIDAAVAQFADSGLRTSVQFVGPLSVVDSALADQAEAVVREAVSNAVRHAKASTLTVRVKVDDDLCIEVTDNGRGLPDEFTGSGLTNLRQRAEQAGGEFTLASVPGASGTVLRWSAPLSQ
# notes: also called DevS~P
# B10: phosphorylated, GFP-tagged HK PhoR (cytosolic catalytic domain) (domain or fragment)
# chain: RRSLRPLAEFEQTAAAIGAGQLDRRVPQWHPRTEVGRLSLALNGMLAQIQRAVASAESSAEKARDSEDRMRQFITDASHELRTPLTTIRGFAELYRQGAARDVGMLLSRIESEASRMGLLVDDLLLLARLDAHRPLELCRVDLLALASDAAHDARAMDPKRRITLEVLDGPGTPEVLGDESRLRQVLRNLVANAIQHTPESADVTVRVGTEGDDAILEVADDGPGMSQEDALRVFERFYRADSSRARASGGTGLGLSIVDSLVAAHGGAVTVTTALGEGCCFRVSLPRVSDVDQLSLTPVVPGPP
# notes: also called PhoR-GFP; PhoR~P
# B11: response regulator KdpE (natural protein)
# chain: MTLVLVIDDEPQILRALRINLTVRGYQVITASTGAGALRAAAEHPPDVVILDLGLPDMSGIDVLGGLRGWLTAPVIVLSARTDSSDKVQALDAGADDYVTKPFGMDEFLARLRAAVRRNTAAAELEQPVIETDSFTVDLAGKKVIKDGAEVHLTPTEWGMLEMLARNRGKLVGRGELLKEVWGPAYATETHYLRVYLAQLRRKLEDDPSHPKHLLTESGMGYRFEA
# Tests used:
# Details in all cases: both partners purified
# [1] = target: T1, phosphorylated, histidine tag labeled HK PrrB (cytosolic catalytic domain) (M. tuberculosis, UniProt P9WGK7 172-446); test: MST
# T1 construct: also called PrrB~P
# T1 sequence: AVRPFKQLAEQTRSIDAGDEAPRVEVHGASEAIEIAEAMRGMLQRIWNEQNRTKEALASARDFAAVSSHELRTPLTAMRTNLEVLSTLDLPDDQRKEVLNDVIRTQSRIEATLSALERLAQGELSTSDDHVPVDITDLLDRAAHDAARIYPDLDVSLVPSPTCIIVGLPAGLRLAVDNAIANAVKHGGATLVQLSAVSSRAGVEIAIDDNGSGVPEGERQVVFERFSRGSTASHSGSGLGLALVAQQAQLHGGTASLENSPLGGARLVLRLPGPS
# [2] = target: B6; test: MST
# [3] = target: B5; test: MST; GFP-tagged MtrB in the unphosphorylated state titrated with RR
# [4] = target: B10
# response regulator PhoP [5] = target: T2, response regulator PhoP (M. tuberculosis, UniProt P71814 1-247); test: MST; GFP-tagged MtrB in the unphosphorylated state titrated with RR
# response regulator PhoP [6] = target: T2, response regulator PhoP
# [7] = target: T3, phosphorylated, histidine tag labeled HK KdpD (cytosolic catalytic domain) (M. tuberculosis, UniProt P9WGL3 532-860); test: MST
# T3 construct: also called KdpD~P
# T3 sequence: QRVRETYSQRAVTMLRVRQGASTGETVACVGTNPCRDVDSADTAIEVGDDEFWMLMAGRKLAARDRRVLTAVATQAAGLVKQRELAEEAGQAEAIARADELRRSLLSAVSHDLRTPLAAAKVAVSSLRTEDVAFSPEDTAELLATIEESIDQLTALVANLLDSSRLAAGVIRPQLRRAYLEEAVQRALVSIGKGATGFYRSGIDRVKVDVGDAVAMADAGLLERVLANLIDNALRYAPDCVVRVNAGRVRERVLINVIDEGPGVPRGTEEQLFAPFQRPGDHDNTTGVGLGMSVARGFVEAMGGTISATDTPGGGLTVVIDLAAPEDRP
# response regulator NarL = target: B8; test: MST
# response regulator DevR = response regulator DevR (M. tuberculosis, UniProt P9WMF9 1-217); test: MST
# response regulator DevR, sequence (P9WMF9 whole entry): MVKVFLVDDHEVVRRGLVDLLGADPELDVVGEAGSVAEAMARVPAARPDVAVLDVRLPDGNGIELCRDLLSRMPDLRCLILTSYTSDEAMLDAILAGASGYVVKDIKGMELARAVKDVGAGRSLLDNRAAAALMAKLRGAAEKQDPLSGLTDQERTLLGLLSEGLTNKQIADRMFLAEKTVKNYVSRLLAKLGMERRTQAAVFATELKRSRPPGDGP
binder,measurement,setting,value
B1,Kd,[1],4310 nM
B2,Kd,[2],444 ± 117 nM
same,Kd,[3],936 ± 113 nM
B3,Kd,[1],1960 nM
B4,Kd,[2],82 ± 12 nM
same,Kd,[3],21700 ± 5020 nM
same,Kd,[4],484 nM
B5,Kd,response regulator PhoP [5],18100 ± 2740 nM
B6,Kd,response regulator PhoP [6],3580 ± 121 nM
B7,Kd,[2],3070 ± 74 nM
same,Kd,[4],1830 nM
B8,Kd,[2],83 ± 15 nM
same,Kd,[7],355 nM
same,Kd,[3],402 ± 58 nM
B9,Kd,response regulator NarL,325 nM
same,Kd,response regulator DevR,13200 nM
B10,Kd,response regulator PhoP [6],1480 nM
B11,Kd,[2],868 ± 100 nM
same,Kd,[7],4490 nM
